According to patent publication US20180371054A1 (published 2018):
One block for each binder: values may come before it.

Assays:
[1] = target: CD22 (human, UniProt P20273 20-687); experiment: Biacore SPR
[2] = target: T1, CD19 (human, UniProt P15391 20-291); experiment: binding kinetics
T1 chain: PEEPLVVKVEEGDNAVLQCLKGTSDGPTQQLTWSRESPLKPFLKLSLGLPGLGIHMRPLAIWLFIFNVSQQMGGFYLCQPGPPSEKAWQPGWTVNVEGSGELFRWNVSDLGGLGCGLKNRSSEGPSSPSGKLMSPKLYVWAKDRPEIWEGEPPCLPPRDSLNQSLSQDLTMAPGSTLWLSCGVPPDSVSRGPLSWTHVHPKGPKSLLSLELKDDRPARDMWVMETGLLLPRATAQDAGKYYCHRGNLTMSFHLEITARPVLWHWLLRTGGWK

[3] = target: T1, CD19; experiment: Biacore SPR

Kd [1]: 38 nM
B1: Murine CD22ALAb scFv (scFv)
scFv: QVQLQQPGAELVRPGASVKLSCKASGYTFTNYWINWVKQRPGQGLEWIGNIYPSDSFTNYNQKFKDKATLTVDKSSSTAYMQLSSPTSEDSAVYYCTRDTQERSWYFDVWGAGTTVTVSSDVVMTQTPLSLPVSLGDQASISCRSSQSLVHSNGNTYLHWYLQKPGQSPKLLIYKVSNRFSGVPDRFSGSGSGTDFTLKISRVEAEDLGLYFCSQSTHVPWTFGGGTKLEIK

Kd [2]: 1.1 nM
B2: CD19ALAb (antibody)
chain: QVQLQQSGAELVRPGSSVKISCKASGYAFSSYWMNWVKQRPGQGLEWIGQIWPGDGDTNYNGKFKGKATLTADESSSTAYMQLSSLASEDSAVYFCARRETTTVGRYYYAMDYWGQGTTVTVSSDIQLTQSPASLAVSLGQRATISCKASQSVDYDGDSYLNWYQQIPGQPPKLLIYDASNLVSGIPPRFSGSGSGTDFTLNIHPVEKVDAATYHCQQSTEDPWTFGGGTKLEIK

Kd [3]: 1.85 nM
B3: Murine CD19ALAb scFv (scFv)
scFv: B2 chain

Kd [1]: 32 nM
B4: Humanised CD22ALAb scFv (scFv)
scFv: EVQLVESGAEVKKPGSSVKVSCKASGYTFTNYWINWVRQAPGQGLEWIGNIYPSDSFTNYNQKFKDRATLTVDKSTSTAYLELRNLRSDDTAVYYCTRDTQERSWYFDVWGQGTLVTVSSDIVMTQSPATLSVSPGERATLSCRSSQSLVHSNGNTYLHWYQQKPGQAPRLLIYKVSNRFSGVPARFSGSGSGVEFTLTISSLQSEDFAVYYCSQSTHVPWTFGQGTRLEIK
